Results reported in PMC11035981, “Activity assays of NnlA homologs suggest the natural product N-nitroglycine is degraded by diverse bacteria” (Beilstein Journal of Organic Chemistry, 2024).
One block for each molecule: values may come before it.

Experiments:
Test in all cases: SEC; analytical size exclusion, Superdex 200 Increase 10/300 GL, mobile phase 100 mM tricine, 100 mM NaCl, pH 7.5; masses from BioRad protein standards; self-association of each purified NnlA
[1] = molecular target: N-nitroglycine lyase A (NnlA) from Variovorax sp. strain JS1663 (Variovorax sp. strain JS1663)
[2] = molecular target: NnlA homolog from Mycobacterium sp. 1465703.0 (Mycobacterium sp. 1465703.0)
[3] = molecular target: NnlA homolog from Pseudonocardia spinosispora DSM 44797 (Pseudonocardia spinosispora DSM 44797)
[4] = molecular target: NnlA homolog from Pseudovibrio denitrificans JCM 1230 (Pseudovibrio denitrificans JCM 1230)
[5] = molecular target: the molecule itself

Molecule: NnlA homolog from Mycobacterium sp. 1465703.0 (enzyme)
- stoichiometry N [2]: 2

Molecule: NnlA homolog from Pseudonocardia spinosispora DSM 44797 (enzyme)
- stoichiometry N [3]: 2

B1: NnlA homolog from Microbispora rosea subsp. nonnitritogenes strain NRRL B-2631 (enzyme)
chain: MTSQAEPAEAAESRIATDWGLDEWADRLIDQAGVGVTILNRHGTVMYYNKWASEHLDRRPEYIGNDVRKRHRRAVTNPRLDAMLKLFEDGRVEPVRYVARPYGKTTILVTVSPIRVDGELVGFSQIVLLKDEVQELCARFDESGRESFEREMLPNGPPAT
- stoichiometry N [5]: 2

Second part, the molecule after the results:

- stoichiometry N [1]: 2
Molecule: N-nitroglycine lyase A (NnlA) from Variovorax sp. strain JS1663 (enzyme)

- stoichiometry N [4]: 2
Molecule: NnlA homolog from Pseudovibrio denitrificans JCM 1230 (enzyme)
